For one series, the target named is T1, DME K1286Q (MBP-Δ537DME) (UniProt Q8LK56 SEQ:538-1729, K1286Q).
T1 sequence: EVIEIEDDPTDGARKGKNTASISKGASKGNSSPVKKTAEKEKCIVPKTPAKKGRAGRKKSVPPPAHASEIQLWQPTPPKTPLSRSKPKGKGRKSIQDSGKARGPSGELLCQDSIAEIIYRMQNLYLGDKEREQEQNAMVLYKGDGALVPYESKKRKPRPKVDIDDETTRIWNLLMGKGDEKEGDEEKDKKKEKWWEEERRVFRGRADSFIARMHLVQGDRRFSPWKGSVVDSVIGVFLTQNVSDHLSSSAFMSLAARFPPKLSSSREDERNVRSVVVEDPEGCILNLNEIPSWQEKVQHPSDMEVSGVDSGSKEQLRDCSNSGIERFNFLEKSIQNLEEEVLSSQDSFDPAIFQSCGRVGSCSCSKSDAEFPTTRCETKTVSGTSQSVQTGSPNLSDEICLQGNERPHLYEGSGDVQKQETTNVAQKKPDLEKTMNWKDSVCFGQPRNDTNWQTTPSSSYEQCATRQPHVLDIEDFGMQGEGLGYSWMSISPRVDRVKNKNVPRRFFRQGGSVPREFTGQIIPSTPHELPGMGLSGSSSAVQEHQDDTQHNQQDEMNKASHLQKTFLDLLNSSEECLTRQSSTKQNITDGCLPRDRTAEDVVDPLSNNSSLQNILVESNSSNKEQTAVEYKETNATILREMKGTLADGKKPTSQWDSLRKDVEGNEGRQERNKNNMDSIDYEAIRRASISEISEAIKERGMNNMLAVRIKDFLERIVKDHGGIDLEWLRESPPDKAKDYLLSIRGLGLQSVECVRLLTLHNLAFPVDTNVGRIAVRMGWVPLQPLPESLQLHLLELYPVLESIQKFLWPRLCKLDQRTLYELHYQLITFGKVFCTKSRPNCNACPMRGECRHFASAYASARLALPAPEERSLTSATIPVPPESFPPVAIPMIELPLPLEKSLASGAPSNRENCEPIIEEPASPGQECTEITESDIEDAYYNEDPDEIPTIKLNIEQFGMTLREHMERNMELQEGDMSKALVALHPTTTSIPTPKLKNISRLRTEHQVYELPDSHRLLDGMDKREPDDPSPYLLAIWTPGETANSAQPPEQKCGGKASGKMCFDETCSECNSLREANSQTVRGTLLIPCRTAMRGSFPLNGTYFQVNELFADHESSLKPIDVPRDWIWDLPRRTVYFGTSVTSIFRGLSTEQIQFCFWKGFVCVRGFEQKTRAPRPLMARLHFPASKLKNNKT
As to the kind of experiment: no trapping or lyase activity detected (catalytic mutant). To be noted: tags: N-terminal MBP; label: 5'-32P top strand. How it is done:
(§1) 5′-labeled oligonucleotide substrates (13.3 nM) were incubated with DME protein (250 nM) in a 15 μl reaction with 40 mM HEPES-KOH (pH 8.0), 0.1 M KCl, 0.1 mM EDTA, 0.5 mM dithiothreitol, and 200 μg/mL BSA at 37° for 1 hr. The reaction was terminated with 15 μl of 95% formamide, 20 mM EDTA, 0.05% bromophenol blue, 0.05% xylene cyanol FF and boiled for 5 min. To induce […], NaOH was added at a final concentration of 0.1 M and the reaction was boiled for 7 min. Products were fractionated on a 15% polyacrylamide gel containing 7.5 M urea and 1×TBE. Electrophoresis was done at 1000V for 4 hrs with a Hoefer SQ3 gel apparatus. The gel was exposed to Kodak BioMax MR film at −80°. Methods for purification of recombinant DME, oligonucleotide substrates, NaBH₄ trapping, and toxicity in E. coli are in the Supplemental Experimental Procedures.
(§2) 5′-labeled oligonucleotide substrates (13.3 nM) were incubated with DME protein (250 nM) in a 15 μl reaction with 40 mM HEPES-KOH (pH 8.0), 0.1 M KCl, 0.1 mM EDTA, 0.5 mM dithiothreitol, and 200 μg/mL BSA at 37°. After 1 hr of incubation, 1 M NaBH₄ was added to a final concentration of 100 mM and the reaction tubes were placed at 37° for an additional 10 min. An equal volume of 2×SDS-PAGE loading buffer (90 mM Tris-HCl, pH 6.8, 20% glycerol, 2% SDS, 0.02% bromophenol blue, 100 mM dithiothreitol) was added to terminate the trapping reaction. […]

A further series addresses T2, DME D1304N (MBP-Δ537DME) (UniProt Q8LK56 SEQ:538-1729, D1304N).
T2 sequence: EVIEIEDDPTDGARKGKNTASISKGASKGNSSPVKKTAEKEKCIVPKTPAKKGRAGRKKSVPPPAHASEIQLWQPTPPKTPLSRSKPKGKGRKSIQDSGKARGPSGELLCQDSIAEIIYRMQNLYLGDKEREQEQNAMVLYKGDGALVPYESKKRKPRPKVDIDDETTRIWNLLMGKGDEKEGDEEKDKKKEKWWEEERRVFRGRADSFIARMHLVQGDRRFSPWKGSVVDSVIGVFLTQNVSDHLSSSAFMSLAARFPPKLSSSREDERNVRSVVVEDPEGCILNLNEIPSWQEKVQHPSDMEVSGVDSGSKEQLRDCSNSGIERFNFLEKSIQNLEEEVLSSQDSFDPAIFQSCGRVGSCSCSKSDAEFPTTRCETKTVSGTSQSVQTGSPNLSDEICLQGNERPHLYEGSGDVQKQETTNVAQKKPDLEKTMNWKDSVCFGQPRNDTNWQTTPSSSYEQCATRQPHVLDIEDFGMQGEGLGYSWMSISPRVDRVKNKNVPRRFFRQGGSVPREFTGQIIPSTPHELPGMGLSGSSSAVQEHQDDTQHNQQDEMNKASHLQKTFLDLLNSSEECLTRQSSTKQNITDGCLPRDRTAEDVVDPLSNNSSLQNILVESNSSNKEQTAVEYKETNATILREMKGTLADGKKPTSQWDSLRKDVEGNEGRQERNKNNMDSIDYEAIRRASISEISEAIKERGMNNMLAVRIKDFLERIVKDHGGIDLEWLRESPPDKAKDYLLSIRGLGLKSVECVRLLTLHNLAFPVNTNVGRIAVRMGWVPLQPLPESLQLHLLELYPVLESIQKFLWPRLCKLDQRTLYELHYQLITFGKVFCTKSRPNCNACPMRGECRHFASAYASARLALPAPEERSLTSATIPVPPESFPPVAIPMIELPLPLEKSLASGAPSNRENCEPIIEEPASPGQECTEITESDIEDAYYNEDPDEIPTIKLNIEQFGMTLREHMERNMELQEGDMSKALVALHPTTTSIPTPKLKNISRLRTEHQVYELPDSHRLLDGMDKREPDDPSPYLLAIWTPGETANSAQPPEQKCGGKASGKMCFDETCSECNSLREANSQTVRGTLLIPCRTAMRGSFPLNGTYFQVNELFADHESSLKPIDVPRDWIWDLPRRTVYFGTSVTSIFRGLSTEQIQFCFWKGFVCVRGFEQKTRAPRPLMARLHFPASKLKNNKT
The series is described as above. The conditions noted are these: tags: N-terminal MBP (pMAL-c2x); label: 5'-32P top strand. How it is done:
as §1, §2

Series [1] concerns the target T3, DME (MBP-Δ537DME, wild-type glycosylase domain) (UniProt Q8LK56 SEQ:538-1729).
T3 chain: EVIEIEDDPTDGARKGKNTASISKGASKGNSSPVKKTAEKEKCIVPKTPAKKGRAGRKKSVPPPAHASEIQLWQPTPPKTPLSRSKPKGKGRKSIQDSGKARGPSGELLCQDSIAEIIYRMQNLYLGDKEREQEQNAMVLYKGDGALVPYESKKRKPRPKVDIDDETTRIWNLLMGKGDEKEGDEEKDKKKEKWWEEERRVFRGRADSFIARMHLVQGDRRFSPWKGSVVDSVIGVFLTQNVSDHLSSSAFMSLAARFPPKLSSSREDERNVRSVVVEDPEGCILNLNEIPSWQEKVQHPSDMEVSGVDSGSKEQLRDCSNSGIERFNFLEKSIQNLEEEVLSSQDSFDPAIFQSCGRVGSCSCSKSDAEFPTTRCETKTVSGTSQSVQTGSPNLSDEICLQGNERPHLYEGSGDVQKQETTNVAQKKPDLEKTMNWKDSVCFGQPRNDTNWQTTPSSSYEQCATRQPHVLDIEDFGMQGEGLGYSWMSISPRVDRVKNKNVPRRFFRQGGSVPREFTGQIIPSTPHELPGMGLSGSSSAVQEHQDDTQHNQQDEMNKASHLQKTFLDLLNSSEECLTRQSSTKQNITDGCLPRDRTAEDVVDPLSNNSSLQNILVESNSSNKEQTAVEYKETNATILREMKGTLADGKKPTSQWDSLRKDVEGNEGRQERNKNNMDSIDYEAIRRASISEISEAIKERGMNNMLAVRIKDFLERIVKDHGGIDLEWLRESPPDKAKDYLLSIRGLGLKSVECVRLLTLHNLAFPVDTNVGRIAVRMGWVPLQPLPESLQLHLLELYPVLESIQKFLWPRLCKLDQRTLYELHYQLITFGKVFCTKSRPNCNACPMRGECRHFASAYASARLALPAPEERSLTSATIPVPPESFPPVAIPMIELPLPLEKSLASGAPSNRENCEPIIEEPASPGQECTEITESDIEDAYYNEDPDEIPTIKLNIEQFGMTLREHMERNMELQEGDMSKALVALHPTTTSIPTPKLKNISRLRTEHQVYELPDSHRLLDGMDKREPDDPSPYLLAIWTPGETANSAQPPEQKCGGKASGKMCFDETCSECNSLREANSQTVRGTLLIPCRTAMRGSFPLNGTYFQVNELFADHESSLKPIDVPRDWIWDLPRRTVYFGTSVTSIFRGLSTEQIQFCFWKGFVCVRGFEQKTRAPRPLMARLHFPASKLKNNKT
As to the kind of experiment: NaBH4-trapped covalent complex (~200 kd); 40 mM HEPES-KOH pH 8.0, 0.1 M KCl, 37 C. The conditions noted are these: tags: N-terminal MBP (pMAL-c2x), expressed in E. coli Rosetta; label: 5'-32P top strand. The source says:
DME breaks the phosophodiester linkage on the 3′-side of a 5-methylcytosine residue (hemimethylated substrate) and generates end-labeled DNAs that migrate on denaturing polyacrylamide gels at the predicted position for β-elimination products (FIG. 3C). The subsequent cleavage of the phosphodiester linkage on the 5′-side yields δ-elimination products through the same mechanism found in related DNA glycosylases (Bhagwat, M. and Gerlt, J. A., Biochemistry, 35, 659-665 (1996)). Treatment of products with strong base (NaOH) prior to gel electrophoresis confirmed the δ-elimination process at the predicted position (FIG. 3C). […] No lyase activity (FIG. 3E) or covalent trapping (FIG. 3D) was detected when DME was incubated with non-methylated oligonucleotides, or when hemimethylated substrate was incubated with no enzyme or mutant enzymes (D1304N or K1286Q). Plants have 5-methylcytosine in the three sequence contexts; CpG, CpNpG, and CpNpN (Bender, J., Ann Rev Plant Biology, 55, 41-68 (2004)). DME has activity on 5-methylcytosine in each of these sequence contexts (FIG. 3E). We detected no DME activity when single-stranded oligonucleotides with 5-methylcytosine were used in the reaction (data not shown). […]

In series [2] the target is T3, DME (MBP-Δ537DME, wild-type glycosylase …). As to the kind of experiment: NaBH4-trapped covalent complex. To be noted: tags: N-terminal MBP (pMAL-c2x), expressed in E. coli Rosetta; label: 5'-32P top strand; T/G mismatch. How it is done:
5′-labeled oligonucleotide substrates (13.3 nM) were incubated with DME protein (250 nM) in a 15 μl reaction with 40 mM HEPES-KOH (pH 8.0), 0.1 M KCl, 0.1 mM EDTA, 0.5 mM dithiothreitol, and 200 μg/mL BSA at 37°. After 1 hr of incubation, 1 M NaBH₄ was added to a final concentration of 100 mM and the reaction tubes were placed at 37° for an additional 10 min. An equal volume of 2×SDS-PAGE loading buffer (90 mM Tris-HCl, pH 6.8, 20% glycerol, 2% SDS, 0.02% bromophenol blue, 100 mM dithiothreitol) was added to terminate the trapping reaction. Products were boiled for 10 min before loading onto a 10% SDS-PAGE gel. The wet gel was exposed to Kodak Biomax MS film for 12-18 h at −80°.

B1: hemimethylated meCpG (MEA-1.6F18meC / MEA-1.6R) (dsDNA)
DNA 1: CTATACCTCCTCAACTCCGGTCACCGTCTCCGGCG
DNA 2: CGCCGGAGACGGTGACCGGAGTTGAGGAGGTATAG
modifications: 5mC at position 18 of top strand [top 18 (5mC)]
As for B1, the binding result in the series with DME K1286Q (MBP-Δ537DME) is reported as “no binding”; with DME D1304N (MBP-Δ537DME), “no binding”; in series [1] it was “binds”.

B2: T/G mismatch (MEA-1.6F18T / MEA-1.6R) (dsDNA)
DNA 1: CTATACCTCCTCAACTCTGGTCACCGTCTCCGGCG
DNA 2: CGCCGGAGACGGTGACCGGAGTTGAGGAGGTATAG
On to B2, for which the binding result in series [2] is recorded as “binds”.

These data come from patent publication US20090305241, “DNA demethylases and uses thereof” (REGENTS OF THE UNIVERSITY OF CALIFORNIA, published 2009).
